# Results taken from paper PMC4764565, “Synergistic integration of Netrin and ephrin axon guidance signals by spinal motor neurons” (eLife, 2015).
# T1: EphB2-GFP (mouse, UniProt P54763 19-986)
# T1 construct: ephrin receptor EphB2 (plasmid Ephb2-GFP, Kao et al., 2009); also called EphB2 fused to GFP; wild-type EphB2-GFP; source: HEK293 (ATCC CRL 1573), transfected (calcium phosphate), in lysate
# T1 sequence (looked up): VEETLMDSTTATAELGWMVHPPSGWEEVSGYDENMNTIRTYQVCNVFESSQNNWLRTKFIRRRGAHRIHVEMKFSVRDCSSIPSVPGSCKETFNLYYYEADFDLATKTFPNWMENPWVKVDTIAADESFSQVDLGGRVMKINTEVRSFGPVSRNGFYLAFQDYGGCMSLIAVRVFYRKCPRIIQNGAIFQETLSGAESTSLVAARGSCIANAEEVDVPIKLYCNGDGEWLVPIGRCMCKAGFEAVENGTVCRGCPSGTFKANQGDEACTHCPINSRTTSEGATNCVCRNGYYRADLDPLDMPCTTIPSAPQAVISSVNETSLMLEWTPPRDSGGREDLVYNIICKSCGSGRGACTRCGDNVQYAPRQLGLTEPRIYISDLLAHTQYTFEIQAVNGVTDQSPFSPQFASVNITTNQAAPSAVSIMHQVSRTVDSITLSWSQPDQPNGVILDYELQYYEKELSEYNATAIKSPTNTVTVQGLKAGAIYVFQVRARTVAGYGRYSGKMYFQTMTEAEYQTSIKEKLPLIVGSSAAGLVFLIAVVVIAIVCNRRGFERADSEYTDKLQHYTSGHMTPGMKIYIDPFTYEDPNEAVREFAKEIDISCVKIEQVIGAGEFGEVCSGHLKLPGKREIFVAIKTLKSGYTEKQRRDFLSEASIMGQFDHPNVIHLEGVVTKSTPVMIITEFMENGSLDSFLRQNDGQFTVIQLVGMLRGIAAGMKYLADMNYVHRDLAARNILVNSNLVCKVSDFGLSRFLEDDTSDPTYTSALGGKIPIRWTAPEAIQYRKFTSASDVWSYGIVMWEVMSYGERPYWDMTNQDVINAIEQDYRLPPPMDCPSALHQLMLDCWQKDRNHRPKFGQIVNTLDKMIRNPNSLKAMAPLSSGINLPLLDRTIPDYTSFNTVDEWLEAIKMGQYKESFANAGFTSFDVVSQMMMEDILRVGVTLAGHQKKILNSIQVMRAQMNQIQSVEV
# Target: T1, EphB2-GFP
# Experiment: co-IP; anti-GFP antibody on ProteinA/G agarose, overnight, pre-cleared lysates of co-transfected HEK293 cells (10mM Tris-Cl pH 8, 137 mM NaCl, 2mM EDTA, 1% NP40); blot for Myc; in the ligand experiments cells were starved 2 hr in OPTIMEM and incubated 15 min at 37°C with pre-clustered Fc, eB2-Fc or eA3-Fc (1.5 μg/ml), Netrin-1 (250 ng/ml) or eB2-Fc+Netrin-1 before lysis
# Conditions: partners not purified
binder,measurement,value
"Unc5c-Myc (receptor, Netrin receptor Unc5c, mouse (plasmid mUnc5c-Myc, gift of Franck Polleux); also called mUnc5c-Myc; source: HEK293 (ATCC CRL 1573), transfected (calcium phosphate), in lysate) not shown",fold increase of the association after pre-incubation with eB2-Fc (against Fc),~22 fold
